In PMC7438732, “The H^+-Translocating Inorganic Pyrophosphatase From Arabidopsis thaliana Is More Sensitive to Sodium Than Its Na^+-Translocating Counterpart From Methanosarcina mazei” (Frontiers in Plant Science, 2020):

Test system: O=P(O)(O)OP(=O)(O)O
Experiment: cells, lysate or membranes
Details: 0 mM added NaCl, 100 mM KCl, pH 7.2, 30 °C, Mg2PPi substrate without excess Mg2+, Na+ from Na4PPi present

Chain of MVP (Methanosarcina mazei Go1) (chain, as listed by the source): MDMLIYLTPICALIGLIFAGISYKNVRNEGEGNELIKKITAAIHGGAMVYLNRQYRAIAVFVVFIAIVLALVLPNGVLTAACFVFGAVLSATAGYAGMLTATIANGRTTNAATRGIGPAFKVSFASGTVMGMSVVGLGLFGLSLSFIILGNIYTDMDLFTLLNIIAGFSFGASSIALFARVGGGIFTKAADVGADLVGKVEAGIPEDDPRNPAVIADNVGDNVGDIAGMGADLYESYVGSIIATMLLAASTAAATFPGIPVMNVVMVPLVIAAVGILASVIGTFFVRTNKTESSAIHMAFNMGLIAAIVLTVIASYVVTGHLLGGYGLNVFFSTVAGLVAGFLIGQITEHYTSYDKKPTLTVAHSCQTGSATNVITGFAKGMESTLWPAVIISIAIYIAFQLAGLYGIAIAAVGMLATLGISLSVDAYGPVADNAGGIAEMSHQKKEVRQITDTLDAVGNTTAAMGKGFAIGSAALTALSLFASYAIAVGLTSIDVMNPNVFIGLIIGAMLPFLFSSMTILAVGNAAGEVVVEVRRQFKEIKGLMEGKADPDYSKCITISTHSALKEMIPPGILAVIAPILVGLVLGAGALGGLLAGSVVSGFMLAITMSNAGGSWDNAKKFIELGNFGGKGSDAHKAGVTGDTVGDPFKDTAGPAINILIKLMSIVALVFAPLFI

Substance: MVP (Methanosarcina mazei Go1)
- K0.5: 0.27 ± 0.27 mM
